# Source: patent publication US20190077860A1 (EISAI R AND D MANAGEMENT, published 2019)
# Legend:
# [1] = target: T1, mouse EphA4 extracellular region-SEAP-His protein (mouse); experiment: SPR (Biacore T200), mouse EphA4 extracellular region-SEAP-His captured on an anti-His antibody CM5 chip, Fab as analyte at 6.2-500 nM, 1:1 fit
# Description: (§1) Next, the binding affinity of antibody A-Fab and antibody A-F(ab′)₂ for mouse and human EphA4 was determined by surface plasmon resonance (SPR) using Biacore T200 (GE Healthcare). Antibody A obtained in Example 1 was used as a control for the comparison of each fragment. First, an anti-His tag antibody was immobilized on sensor chip CM5. The immobilization of the anti-His tag antibody on sensor chip CM5 was performed by the amine coupling method using N-hydroxysuccinimide (NHS) and N-ethyl-N′-(3-dimethylaminopropyl)carbodiimide hydrochloride (EDC). Ethanolamine was used in blocking (the sensor chip and the reagents for immobilization were all manufactured by GE Healthcare). The antibody was diluted with a buffer solution for immobilization (10 mM sodium acetate, pH 4.5) into 3 μg/mL and immobilized on the sensor chip according to the protocol attached to Biacore T200.
# (§2) Mouse or human EphA4 extracellular region-SEAP-His protein was diluted with a running buffer solution HBS-EP (GE Healthcare, BR-1001-88), injected onto a flow cell for 120 seconds, and captured (amount of the protein captured: approximately 10 to 20 RU). Subsequently, antibody A (50, 16.7, 5.6, 1.9, 0.6, and 0 nM), antibody A-Fab (500, 166.7, 55.6, 18.5, 6.2, and 0 nM), or antibody A-F(ab′)₂ (50, 16.7, 5.6, 1.9, 0.6, and 0 nM) serially diluted using HBS-EP was added to the sensor chip for 120 seconds. […]
# [2] = target: T1, mouse EphA4 extracellular …; experiment: competition ELISA, competitor biotinylated mouse Ephrin B2-Fc
# Description: Antibody A-Fab and antibody A-F(ab′)₂ obtained in Example 5 were evaluated for their inhibitory activity against the binding between EphA4 and its ligand according to the following steps. Each well of a 96-well plate (Nunc) was coated with an anti-alkaline phosphatase antibody (Thermo Fisher Scientific). After incubation overnight at 4° C., each well was blocked with 1% BlockAce (DS Pharma Biomedical) at room temperature for 1 hour. After washing with 0.05% Tween 20/PBS (Thermo Fisher Scientific) three times, the mouse EphA4 extracellular region-SEAP-His protein obtained by the method of Example 1 was added (final concentration: 10 nM) to each well and incubated at room temperature for 1 hour. After washing three times, a ligand and serially diluted antibody A (0, 0.003, 0.01, 0.03, 0.1, 0.3, 1, 3, 10, 30, 100, 300, 1000, and 3000 nM), antibody A-Fab (0, 0.003, 0.01, 0.03, 0.1, 0.3, 1, 3, 10, 30, 100, 300, 1000, and 3000 nM), antibody A-F(ab′)₂ (0, 0.003, 0.01, 0.03, 0.1, 0.3, 1, 3, 10, 30, 100, 300, 1000, and 3000 nM), or the EphA4 inhibitor KYL peptide ([…], 0, 0.0003, 0.001, 0.003, 0.01, 0.03, 0.1, 0.3, 1, 3, 10, 30, 100, 300, 1000, and 3000 μM, its synthesis was outsourced to Toray Research Center) were added to each well. The ligand used was biotinylated mouse Ephrin B2-Fc chimera (R&D Systems, final concentration: 2.5 nM). After incubation at room temperature for 1 hour and subsequent washing three times, horseradish peroxidase-labeled streptavidin (GE Healthcare) was added thereto and incubated at room temperature for 1 hour. After washing three times, a TMBZ (3,3′,5,5′-tetramethylbenzidine, Sigma-Aldrich) solution was added to each well and incubated at room temperature for 2 minutes. An equal amount of a reaction stopping solution (1N H₂SO₄, Wako Pure Chemical Industries) was added to each well. The absorbance at 450 nm was read using a microplate reader (Molecular Devices or PerkinElmer).
# Antibody A and antibody A-F(ab′)₂ had 1000 or more times the activity of the KYL peptide, and antibody A-Fab also had 10 or more times the activity of KYL peptide.
# [3] = target: T2, human EphA4 extracellular region-SEAP-His protein (human, UniProt P54764 20-547); experiment: SPR (Biacore T200), EphA4-SEAP-His captured by anti-His antibody; Fab (monovalent), not F(ab')2
# T2 construct: also called hEphA4-SEAP-His
# Description: as §1, §2
# [4] = target: T1, mouse EphA4 extracellular …; experiment: as above
# Description: as §1, §2
# [5] = target: T2, human EphA4 extracellular …; experiment: SPR (Biacore T200), human EphA4 extracellular region-SEAP-His captured on an anti-His antibody CM5 chip, Fab as analyte at 6.2-500 nM, 1:1 fit
# Description: as §1, §2
# [6] = target: T1, mouse EphA4 extracellular …; experiment: competition ELISA: mouse EphA4 extracellular region-SEAP-His captured on the plate, blocked ligand mouse Ephrin A1-Fc chimera (20 nM)
# Description: (§3) Antibody A obtained in Example 1 was evaluated for its inhibitory activity against the binding between mouse EphA4 and its mouse ligand according to the following steps. Each well of a 96-well plate (Nunc) was coated with an anti-alkaline phosphatase antibody (Thermo Fisher Scientific). After incubation overnight at 4° C., each well was blocked with 1% BlockAce (DS Pharma Biomedical) at room temperature for 1 hour. After washing with 0.05% Tween 20/PBS (Thermo Fisher Scientific) three times, the mouse EphA4 extracellular region-SEAP-His protein obtained by the method of Example 1 was added (final concentration: 10 nM) to each well and incubated at room temperature for 1 hour. After washing three times, ligands and serially diluted antibody A (0, 0.001, 0.003, 0.01, 0.03, 0.1, 0.3, 1,3, 10, 30, 100, 300, and 1000 nM) or a known EphA4 inhibitor KYL peptide ([…], 0, 0.003, 0.01, 0.03, 0.1, 0.3, 1, 3, 10, 30, and 100 μM, its synthesis was outsourced to Hokkaido System Science) or compound 1 (0, 0.03, 0.1, 0.3, 1,3, 10, 30, 100, 300, and 1000 μM, Formula 1, Matrix Scientific) were added to each well. The ligands used were mouse Ephrin A1-Fc chimera (R&D Systems, final concentration: 20 nM) and mouse Ephrin B2-Fc chimera (R&D Systems, final concentration: 0.6 nM). […] The absorbance at 450 nm was read using a microplate reader (Molecular Devices).
# [7] = target: T1, mouse EphA4 extracellular …; experiment: competition ELISA: mouse EphA4 extracellular region-SEAP-His captured on the plate, blocked ligand mouse Ephrin B2-Fc chimera (0.6 nM)
# Description: as §3
# [8] = target: rat EphA4 in rat hippocampal neurons (rat, UniProt D3ZZK3 20-986); experiment: cell-based or functional assay
# [9] = target: T2, human EphA4 extracellular …; experiment: competition ELISA, competitor human Ephrin A5-Fc
# Description: (§4) Antibody A obtained in Example 1 was evaluated for its inhibitory activity against the binding between human EphA4 and its human ligand according to the following steps. Each well of a 96-well plate (Nunc) was coated with an anti-alkaline phosphatase antibody (Thermo Fisher Scientific). After incubation overnight at 4° C., each well was blocked with 1% BlockAce (DS Pharma Biomedical) at room temperature for 1 hour. After washing with 0.05% Tween 20/PBS (Thermo Fisher Scientific) three times, the human EphA4 extracellular region-SEAP-His protein obtained by the method of Example 1 was added (final concentration: 10 nM) to each well and incubated at room temperature for 1 hour. After washing three times, ligands and serially diluted antibody A (0, 0.003, 0.01, 0.03, 0.1, 0.3, 1, 3, 10, 30, 100, 300, 1000, and 3000 nM) or an EphA4 inhibitor KYL peptide ([…], 0, 0.003, 0.01, 0.03, 0.1, 0.3, 1, 3, 10, 30, 100, 300, 1000, and 3000 μM, its synthesis was outsourced to Toray Research Center) were added to each well. The ligands used were biotinylated human Ephrin A5-Fc chimera (R&D Systems, final concentration: 0.7 nM) and biotinylated human Ephrin B3-Fc chimera (R&D Systems, final concentration: 2.3 nM). […] The absorbance at 450 nm was read using a microplate reader (Molecular Devices or PerkinElmer). […]
# [10] = target: T1, mouse EphA4 extracellular …; experiment: competition ELISA, competitor mouse Ephrin B2-Fc
# Description: as §3
# [11] = target: T2, human EphA4 extracellular …; experiment: competition ELISA: human EphA4 extracellular region-SEAP-His captured on the plate, blocked ligand biotinylated human Ephrin B3-Fc chimera (2.3 nM)
# Description: as §4
# [12] = target: T2, human EphA4 extracellular …; experiment: competition ELISA, competitor human Ephrin B3-Fc
# Description: as §4
# [13] = target: T2, human EphA4 extracellular …; experiment: competition ELISA: human EphA4 extracellular region-SEAP-His captured on the plate, blocked ligand biotinylated human Ephrin A5-Fc chimera (0.7 nM)
# Description: as §4
# T2 sequence (P54764 20-547): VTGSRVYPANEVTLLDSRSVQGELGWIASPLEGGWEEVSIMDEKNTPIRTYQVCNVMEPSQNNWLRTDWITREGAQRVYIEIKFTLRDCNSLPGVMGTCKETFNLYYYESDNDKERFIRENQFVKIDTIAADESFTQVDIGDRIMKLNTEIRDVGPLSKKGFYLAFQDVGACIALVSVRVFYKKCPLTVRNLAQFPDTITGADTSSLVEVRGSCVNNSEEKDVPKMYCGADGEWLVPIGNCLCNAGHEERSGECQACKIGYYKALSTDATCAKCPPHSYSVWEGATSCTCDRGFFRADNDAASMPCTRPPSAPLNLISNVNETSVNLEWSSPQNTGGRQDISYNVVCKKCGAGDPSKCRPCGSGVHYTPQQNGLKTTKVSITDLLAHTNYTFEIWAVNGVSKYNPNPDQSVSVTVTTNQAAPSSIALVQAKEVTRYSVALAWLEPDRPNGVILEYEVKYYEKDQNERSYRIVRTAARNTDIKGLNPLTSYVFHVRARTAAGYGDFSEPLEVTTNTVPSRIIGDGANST
# T1 sequence (chain, as listed by the source limits assumed): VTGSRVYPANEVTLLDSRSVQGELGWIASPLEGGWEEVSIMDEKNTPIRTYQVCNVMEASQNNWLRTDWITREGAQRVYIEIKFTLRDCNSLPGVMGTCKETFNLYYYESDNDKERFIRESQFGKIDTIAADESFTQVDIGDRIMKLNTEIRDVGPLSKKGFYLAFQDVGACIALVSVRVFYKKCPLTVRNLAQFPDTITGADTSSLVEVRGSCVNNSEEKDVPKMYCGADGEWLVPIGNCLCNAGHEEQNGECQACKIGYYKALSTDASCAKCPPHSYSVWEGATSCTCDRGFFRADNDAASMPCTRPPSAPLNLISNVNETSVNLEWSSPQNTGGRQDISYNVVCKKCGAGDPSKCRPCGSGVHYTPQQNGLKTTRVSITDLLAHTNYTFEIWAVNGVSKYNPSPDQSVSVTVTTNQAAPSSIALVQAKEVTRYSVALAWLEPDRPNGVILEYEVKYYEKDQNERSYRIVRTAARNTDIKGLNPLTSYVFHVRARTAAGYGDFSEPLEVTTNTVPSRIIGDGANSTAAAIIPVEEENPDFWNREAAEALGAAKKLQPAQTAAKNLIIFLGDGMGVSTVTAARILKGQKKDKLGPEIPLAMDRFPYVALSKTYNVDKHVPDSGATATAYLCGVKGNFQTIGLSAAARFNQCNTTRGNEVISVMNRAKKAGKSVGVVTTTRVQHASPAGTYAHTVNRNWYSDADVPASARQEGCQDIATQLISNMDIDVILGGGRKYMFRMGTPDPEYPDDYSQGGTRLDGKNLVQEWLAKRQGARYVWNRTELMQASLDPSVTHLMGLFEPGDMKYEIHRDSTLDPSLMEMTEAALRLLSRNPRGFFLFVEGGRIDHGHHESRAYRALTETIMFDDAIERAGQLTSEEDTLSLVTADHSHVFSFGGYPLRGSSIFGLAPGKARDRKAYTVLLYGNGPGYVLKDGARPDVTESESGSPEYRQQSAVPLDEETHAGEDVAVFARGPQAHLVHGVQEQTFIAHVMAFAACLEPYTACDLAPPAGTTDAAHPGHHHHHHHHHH
koff [1],kon [1],IC50 [2],fold activity against KYL peptide [2],Kd [3],Kd [4],koff [5],kon [5],IC50 [6],IC50 [7],IC50 of suppression of EphA4 autophosphorylation induced by mouse EphrinA1 in the hippocampal neurons [8],IC50 [9],IC50 [10],IC50 [11],IC50 [12],IC50 [13],Binder
0.042 s⁻¹,931000 M⁻¹ s⁻¹,0.439 µM,≥ 10 fold,0.0404 µM,0.0451 µM,0.0373 s⁻¹,921000 M⁻¹ s⁻¹,–,–,–,–,–,–,–,–,"antibody A-Fab (Fab, V domains shown, not shown: a dimerising Fc or GST, made by papain digestion of antibody A; also called Fab fragment of antibody A) VH: QIQLVQSGPELKKPGETVKISCKASGYTFTDYSMHWVKQAPGKGLKWMGWINTETGEPTYADDFKGRFAFSLETSASTAYLQINNLKNEDTATYFCARIPLYYYGSRYWYFDVWGAGTTVTVSS VL: DIQMTQSPASLSVSVGETVTITCRASENIYRNLAWYQQKQGKSPQLLVYAATNLADGVPSRFSGSGSGTQYSLKINSLQSEDFGSYYCQHFWGTPWTFGGGTKLEIKR"
–,–,5.29 µM,–,–,–,–,–,1.29 µM,1.31 µM,9.91 µM,~6.1 µM,~1.3 µM,1.57 µM,~1.6 µM,6.12 µM,KYLPYWPVLSSL (synthetic peptide) [KYL peptide]
